The record followed here is US8552157B2, “c-Kit antibodies and uses thereof” (ImClone LLC, priority 2011, dated 2013).

The subject of experiment [1] is MALM-3M human melanoma cell line xenograft. As to the kind of experiment: Xenograft tumor growth inhibition, MALM-3M. The class given is in vivo, athymic nude mice. On the procedure: Briefly described, c-Kit-dependent human cancer cell lines are expanded in culture and then are injected subcutaneously into the rear flank of athymic nude mice (Charles River, Wilmington, Mass.) with 2-10 million cells per mouse. Anti-c-Kit mAbs are diluted in PBS, pH 7.2, and administered by intravenous injection at 4 or 40 mg/kg. […] Furthermore, treatment groups may include appropriate chemotherapy drugs or approved RTK inhibitors alone or in combination with the antibodies of the present invention. Antibodies and saline control are administered three times per week for four weeks Inhibition of tumor cell growth is determined by three dimensional caliper measurement of tumor volume twice weekly during the course of treatment. Tumor volume may be calculated as follows: Tumor volume(mm^3)=(length of the tumor)(width^2 of the tumor)(π/6), where the length of the tumor is the largest dimension of the tumor parallel to the skin surface and the width is the largest measurement perpendicular to the length, parallel to the skin surface. Body weight may also be measured frequently during the course of treatment as a general measurement of toxicity. T/C %, and P values are calculated by RM ANOVA where, T/C %=[(Treatment Volume/Initial Volume)/(Control Volume/Initial Volume)]*100 and the P value is calculated in relation to saline.

Experiment [2] has as its target T1, c-Kit in Mo7e cells (Homo sapiens, UniProt P10721).
T1 construct: endogenous in cells; host or cells: Mo7e (human megakaryocytic leukemia)
As to the kind of experiment: In vitro c-Kit degradation assay (Example 7a, western blot), Mo7e. The format is cell-based. On the procedure:
Human cell lines expressing c-Kit (e.g., GIST882, Mo7e, and Malm-3M) are plated in a 6-well dish at a density of 3×10^6 cells/ml in 3 ml of serum-free media for all but one Mo7e assay that uses 10% serum. […] One well of cells is left untreated as a control. Immediately after the treatment period, the cells are washed in cold PBS, lysed in 100 μl lysis buffer (50 mM Hepes pH 7.5, 150 mM NaCl, 10 mM NaPPi, 50 mM NaF, 1 mM Na3VO4, 1% Triton X-100, protease inhibitor cocktail). After a ten minute incubation on ice, the cells are centrifuged at 12,000 g for 15 minutes at 4° C. The supernatant is collected and subjected to western blot analysis under reducing conditions. […] SCF induced degradation is not apparent when using 10% serum. (Replicates of GIST882=1, Mo7e=3, and Malm-3M=1).

The target in experiment [3] is T1, c-Kit in Mo7e cells. As to the kind of experiment: In vitro c-Kit degradation assay (Example 7, western blot), Mo7e. The format is cell-based. As to conditions: SCF 100 ng/ml, 12, 24, and 48 hours at 37° C., data not shown. On the procedure: An in vitro cell based assay may be used to measure the ability of c-Kit mAbs to induce degradation of c-Kit as measured by the amount of total c-Kit found in cell lysates after treating tumor cells with a c-Kit mAb at 37° C. Briefly, human cell lines expressing c-Kit (e.g., Mo7e and GIST882) are plated in a 6-well dish at a density of 3×10^6 cells/ml in 3 ml of serum-free media. […] One well of cells is left untreated as a control. Immediately after the treatment period, the cells are washed in cold PBS, lysed in 100 μl lysis buffer (50 mM Hepes pH 7.5, 150 mM NaCl, 10 mM NaPPi, 50 mM NaF, 1 mM Na3VO4, 1% Triton X-100, protease inhibitor cocktail). After a ten minute incubation on ice, the cells are centrifuged at 12,000 g for 15 minutes at 4° C. The supernatant is collected and subjected to western blot analysis under reducing conditions. […] As expected from previous reports in the scientific literature,
degradation of c-Kit was not observed after treatment of the tumor cells with SCF (100 ng/ml) for 12, 24, and 48 hours at 37° C. (data not shown).
In general terms: Immunoblotting shows a protein as a band on a membrane.

A further experiment has as its target T2, c-Kit in GIST882 cells (Homo sapiens, UniProt P10721, K642E).
T2 construct: endogenous in cells; host or cells: GIST882 (human gastrointestinal stromal tumor)
As to the kind of experiment: In vitro c-Kit degradation assay (Example 7, western blot), GIST882. The class given is cell-based. As to conditions: SCF 100 ng/ml, 12, 24, and 48 hours at 37° C., data not shown.

T1 sequence (P10721 26-976): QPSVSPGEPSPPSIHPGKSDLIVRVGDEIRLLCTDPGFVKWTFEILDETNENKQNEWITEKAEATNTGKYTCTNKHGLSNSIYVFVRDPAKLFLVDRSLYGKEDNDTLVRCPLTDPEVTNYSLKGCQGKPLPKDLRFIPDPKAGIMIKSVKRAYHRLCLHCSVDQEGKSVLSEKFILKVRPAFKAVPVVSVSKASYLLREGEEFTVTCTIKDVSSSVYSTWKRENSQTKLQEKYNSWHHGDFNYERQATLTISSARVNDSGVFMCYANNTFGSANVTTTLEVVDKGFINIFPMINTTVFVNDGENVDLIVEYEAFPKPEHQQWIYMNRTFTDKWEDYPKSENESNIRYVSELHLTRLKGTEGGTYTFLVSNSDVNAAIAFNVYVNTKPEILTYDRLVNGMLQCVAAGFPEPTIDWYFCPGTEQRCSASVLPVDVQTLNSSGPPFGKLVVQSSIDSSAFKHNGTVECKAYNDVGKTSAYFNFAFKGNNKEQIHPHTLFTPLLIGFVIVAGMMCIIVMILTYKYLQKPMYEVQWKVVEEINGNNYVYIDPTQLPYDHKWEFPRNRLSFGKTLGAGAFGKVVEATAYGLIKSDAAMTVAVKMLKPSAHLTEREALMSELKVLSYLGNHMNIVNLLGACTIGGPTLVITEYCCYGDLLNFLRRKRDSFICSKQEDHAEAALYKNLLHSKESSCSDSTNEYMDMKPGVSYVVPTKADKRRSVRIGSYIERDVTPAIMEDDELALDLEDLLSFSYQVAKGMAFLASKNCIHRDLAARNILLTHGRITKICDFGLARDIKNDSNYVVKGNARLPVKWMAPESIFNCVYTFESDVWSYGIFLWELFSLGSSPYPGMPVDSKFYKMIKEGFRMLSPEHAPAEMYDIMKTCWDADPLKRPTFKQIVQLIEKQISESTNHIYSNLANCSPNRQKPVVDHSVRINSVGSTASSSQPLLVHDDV
T2 sequence (P10721 26-976 K642E): as the sequence (P10721 26-976) above, with K617E counted along it

On to `CN(C)/N=N/c1[nH]cnc1C(N)=O` [DTIC, dacarbazine, reference compound], for which the T/C % in experiment [1] (Table 13 upper part, DTIC 80 mg/kg, P value 0.0021) came out at 68%.

Regarding `Cc1ccc(NC(=O)c2ccc(CN3CCN(C)CC3)cc2)cc1Nc1nccc(-c2cccnc2)n1` [Imatinib, imatinib, reference compound], the T/C % in experiment [1] (Table 13 lower part, Imatinib 100 mg/kg, P value 0.0001) was 61%. As for `CCN(CC)CCNC(=O)c1c(C)[nH]c(/C=C2\C(=O)Nc3ccc(F)cc32)c1C` [Sunitinib, sunitinib, reference compound], the T/C % in experiment [1] (Table 13 lower part, Sunitinib 40 mg/kg, P value 0.0004) came out at 68%. As for “SCF: c-Kit ligand stem cell factor (SCF) [reference compound]”, the “degradation of c-Kit, in words” value in the experiment with c-Kit in Mo7e cells [2] (SCF 1 ug/ml and 100 ng/ml, 24 hours at 37° C., 0% serum) is “Degradation of c-Kit is observed”; with c-Kit in Mo7e cells [2] (SCF, 10% serum) it was “not apparent”; in the experiment with c-Kit in Mo7e cells [3], “not observed”; with c-Kit in GIST882 cells, “not observed”.
